Like-named read-outs stand apart in the source and are kept apart here.
What was measured:
[1] = target: dog MET on dMET-NIH3T3 cells (dog (Canis lupus, printed 'Cans lupus')) (UniProt Q75ZY9); assay: flow cytometry on dMET-NIH3T3 cells (evaluated as No binding)
[2] = target: monkey MET on fasMET-NIH3T3 cells (monkey (Macaca fascicularis)); assay: flow cytometry on fasMET-NIH3T3 cells (evaluated as No binding)
[3] = target: monkey EGFR on CHO-S-fasEGFR cells (monkey (crab-eating macaque; Macaca fascicularis)) (UniProt P55245); assay: flow cytometry on CHO-S-fasEGFR cells (evaluated as No binding)
[4] = target: human EGFR on CHO-S-hEGFR cells (human) (UniProt P00533); assay: flow cytometry on CHO-S-hEGFR cells (evaluated as No binding)
[5] = target: monkey MET on fasMET-NIH3T3 cells (monkey (Macaca fascicularis)); assay: flow cytometry on fasMET-NIH3T3 cells (evaluated as No binding); remark: listed apart in the source
[6] = target: human MET on hMET-NIH3T3 cells (human) (UniProt P08581); assay: flow cytometry on hMET-NIH3T3 cells (evaluated as No binding)
Chain of human MET on hMET-NIH3T3 cells (human) (P08581 25-1390 limits assumed): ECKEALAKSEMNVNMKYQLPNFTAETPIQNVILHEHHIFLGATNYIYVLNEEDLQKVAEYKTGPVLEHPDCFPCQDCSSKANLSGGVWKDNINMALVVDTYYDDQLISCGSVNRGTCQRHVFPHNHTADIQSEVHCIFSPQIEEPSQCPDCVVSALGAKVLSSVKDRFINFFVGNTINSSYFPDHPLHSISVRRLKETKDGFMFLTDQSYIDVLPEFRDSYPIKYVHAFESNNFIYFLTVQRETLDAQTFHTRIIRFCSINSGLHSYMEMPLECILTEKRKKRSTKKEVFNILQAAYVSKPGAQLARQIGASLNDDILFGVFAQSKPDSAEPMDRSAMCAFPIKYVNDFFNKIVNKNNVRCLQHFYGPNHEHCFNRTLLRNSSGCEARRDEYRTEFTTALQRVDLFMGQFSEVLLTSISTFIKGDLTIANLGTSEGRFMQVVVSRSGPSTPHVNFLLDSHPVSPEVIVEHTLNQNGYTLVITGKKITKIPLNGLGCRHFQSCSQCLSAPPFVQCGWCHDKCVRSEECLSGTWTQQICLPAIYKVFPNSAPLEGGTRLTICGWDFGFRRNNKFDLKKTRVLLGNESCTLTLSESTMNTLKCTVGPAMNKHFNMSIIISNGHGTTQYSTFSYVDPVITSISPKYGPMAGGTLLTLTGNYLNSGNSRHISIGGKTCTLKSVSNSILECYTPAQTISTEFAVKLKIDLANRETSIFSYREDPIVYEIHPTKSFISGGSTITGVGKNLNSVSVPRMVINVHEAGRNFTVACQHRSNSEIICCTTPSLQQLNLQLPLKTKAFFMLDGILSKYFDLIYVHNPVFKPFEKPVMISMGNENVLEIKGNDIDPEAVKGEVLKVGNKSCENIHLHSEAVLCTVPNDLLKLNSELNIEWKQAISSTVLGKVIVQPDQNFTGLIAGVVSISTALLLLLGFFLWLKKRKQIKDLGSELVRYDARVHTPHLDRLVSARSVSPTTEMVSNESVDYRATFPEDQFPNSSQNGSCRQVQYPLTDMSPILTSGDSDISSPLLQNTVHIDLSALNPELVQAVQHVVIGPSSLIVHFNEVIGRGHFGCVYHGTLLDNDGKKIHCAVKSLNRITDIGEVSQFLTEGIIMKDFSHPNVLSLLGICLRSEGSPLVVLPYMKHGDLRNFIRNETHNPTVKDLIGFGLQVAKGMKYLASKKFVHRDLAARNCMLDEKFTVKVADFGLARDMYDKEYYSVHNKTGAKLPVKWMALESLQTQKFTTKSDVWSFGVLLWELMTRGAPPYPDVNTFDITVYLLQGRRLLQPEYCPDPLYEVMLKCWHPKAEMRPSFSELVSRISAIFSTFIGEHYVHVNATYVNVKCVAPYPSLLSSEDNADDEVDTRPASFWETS

[7] = target: monkey EGFR on CHO-S-fasEGFR cells (monkey (crab-eating macaque; Macaca fascicularis)) (UniProt P55245); assay: flow cytometry on CHO-S-fasEGFR cells (evaluated as No binding); remark: listed apart in the source
[8] = target: human MET on SNU-5 cells (human) (UniProt P08581); assay: flow cytometry on SNU-5 cells (evaluated as No binding)
Chain of human MET on SNU-5 cells (human) (P08581 25-1390): as the sequence (P08581 25-1390 limits assumed) above

[9] = target: His-tagged monkey MET (monkey); assay: SPR (Biacore 8K), Protein A chip

Chain of monkey MET on fasMET-NIH3T3 cells (monkey (Macaca fascicularis)) (chain, as listed by the source limits assumed): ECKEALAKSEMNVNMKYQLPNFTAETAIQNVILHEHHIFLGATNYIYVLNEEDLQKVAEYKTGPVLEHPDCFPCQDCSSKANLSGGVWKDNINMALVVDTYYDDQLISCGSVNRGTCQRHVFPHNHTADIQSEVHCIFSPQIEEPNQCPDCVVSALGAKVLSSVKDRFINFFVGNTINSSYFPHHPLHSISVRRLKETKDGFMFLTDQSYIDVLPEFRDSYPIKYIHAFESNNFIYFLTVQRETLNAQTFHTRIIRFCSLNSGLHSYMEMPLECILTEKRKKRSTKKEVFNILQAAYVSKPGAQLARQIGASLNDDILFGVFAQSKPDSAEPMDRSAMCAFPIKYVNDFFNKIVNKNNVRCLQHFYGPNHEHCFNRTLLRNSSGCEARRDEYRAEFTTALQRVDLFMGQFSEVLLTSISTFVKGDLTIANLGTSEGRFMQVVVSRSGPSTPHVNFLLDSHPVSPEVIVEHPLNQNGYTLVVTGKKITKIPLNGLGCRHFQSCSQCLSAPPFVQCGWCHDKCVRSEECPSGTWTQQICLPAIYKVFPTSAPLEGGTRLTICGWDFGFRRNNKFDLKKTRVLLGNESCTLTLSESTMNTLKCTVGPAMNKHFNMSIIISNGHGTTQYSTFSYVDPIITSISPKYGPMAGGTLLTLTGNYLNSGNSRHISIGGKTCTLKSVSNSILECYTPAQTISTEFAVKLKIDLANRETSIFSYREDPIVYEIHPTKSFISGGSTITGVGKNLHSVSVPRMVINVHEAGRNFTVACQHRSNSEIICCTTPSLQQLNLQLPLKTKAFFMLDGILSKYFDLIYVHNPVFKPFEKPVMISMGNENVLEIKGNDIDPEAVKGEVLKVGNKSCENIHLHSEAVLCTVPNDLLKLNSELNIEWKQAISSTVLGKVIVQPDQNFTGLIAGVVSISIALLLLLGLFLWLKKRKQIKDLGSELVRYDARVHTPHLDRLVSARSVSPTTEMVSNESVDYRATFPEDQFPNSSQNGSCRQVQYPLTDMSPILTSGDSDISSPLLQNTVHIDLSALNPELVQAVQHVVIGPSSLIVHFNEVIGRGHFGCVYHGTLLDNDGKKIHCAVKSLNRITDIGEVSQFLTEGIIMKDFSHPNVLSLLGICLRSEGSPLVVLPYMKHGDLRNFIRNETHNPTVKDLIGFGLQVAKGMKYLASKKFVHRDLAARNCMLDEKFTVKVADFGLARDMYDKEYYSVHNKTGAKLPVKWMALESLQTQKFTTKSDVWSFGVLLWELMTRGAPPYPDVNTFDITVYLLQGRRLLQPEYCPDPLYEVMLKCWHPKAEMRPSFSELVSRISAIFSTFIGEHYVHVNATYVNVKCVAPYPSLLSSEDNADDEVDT

| Substance | Percentage of Positive Cells [1] [%] | Percentage of Positive Cells [2] [%] | Percentage of Positive Cells [3] [%] | Percentage of Positive Cells [4] [%] | Percentage of Positive Cells [5] [%] | Percentage of Positive Cells [6] [%] | Percentage of Positive Cells [7] [%] | Percentage of Positive Cells [8] [%] | Kd [9] [nM] | koff [9] [s⁻¹] | kon [9] [M⁻¹ s⁻¹] |
| --- | --- | --- | --- | --- | --- | --- | --- | --- | --- | --- | --- |
| NC | 0.29 | 1.29 | 0.2 | 0 | 0.8 | 1.01 | 0.65 | 2.5 |  |  |  |
| Telisotuzumab analog (antibody) |  |  |  |  |  |  |  |  | 1.5 | 9.41e-05 | 62600 |
